What was measured:
Conditions in all cases: remark: other sources report otherwise
[1] = molecular target: COVID S1 RBD Fc fusion (Antigen 1) (SARS-CoV-2), P0DTC2; test: phage ELISA
[2] = molecular target: SARS-CoV-2 S protein trimer (SARS-CoV-2), P0DTC2; test: column DC/S-T (format not explained)
[3] = molecular target: SARS-CoV-2 S protein trimer (SARS-CoV-2), P0DTC2; test: ELISA on coated S trimer; quantity not named
[4] = molecular target: SARS-CoV-2 S protein trimer (SARS-CoV-2), P0DTC2; test: column DB/S-T (format not explained)
[5] = molecular target: SARS-CoV-2 S protein trimer (SARS-CoV-2), P0DTC2; test: column Fc/S-T (format not explained)

Row | Binder | ELISA fold over background (fold over background) [1] | Kd [2] [nM] | S Trimer [3] [nM] | Kd [4] [nM] | Kd [5] [nM]
1 | 1-30 (antibody, V domains shown) VH: EVQLLESGGGLVQPGGSLRLSCAASGFTFSSYAMTWVRQAPGKGLEWVSAISGSGGSTFYADSVKGRFTISRDNSKNTLYLQMNSLRAEDTAVYYCTRPPYGDYGDYWGQGTLVTVSS VL: QSALTQPASVSGSPGQSITISCTGTSRDVGSYNLVSWYQQHPGKAPKLMIYEGTKRPSGVSNRFSGSKSGNTASLTISGLQAEDEADYYCCSYAGSRTPVVFGGGTKLTVL | 1.7 | 476000 | 4.02 | – | –
2 | 1-3 (antibody, V domains shown) VH: EVQLLESGGGLVQPGGSLRLSCAASGFTFSSQAMSWVRQAPGKGLEWVSAISGSGGGTYYADSVKGRFTISRDNSKNTLYLQMNSLRAEDTAVYYCAKDRRFGEFDPWGQGTLVTVSS VL: QSALTQPASVSGSPGQSITISCTGISSDVGSYNLVSWYQQHPGKAPKLMIYEGTKRPSGVSNRFSGSKSGNTASLTISGLQAEDEADYYCCSYAGSSSFVVFGGGTKLTVL | 1.8 | 5310 | – | 423 | 10
3 | 1-31 (antibody, V domains shown) VH: EVQLLESGGGLVQPGGSLRLSCAASGFTFSSYAMNWVRQAPGKGLEWVSAISGSGGSTFYADSVKGRFTISRDNSKNTLYLQMNSLRAEDTAVYYCTRPPYGDYGDYWGQGTLVTVSS VL: QSALTQPASVSGSPGQSITISCTGTSSDVGKYNLVSWYQQHPGKAPKLMIYEGSQRPSGVSNRFSGSKSGNTASLTISGLQAEDEADYYCCSYAGSRTPVVFGGGTKLTVL | 1.3 | – | 0.8 | – | –
4 | 1-32 (antibody, V domains shown) VH: EVQLLESGGGLVQPGGSLRLSCAASGFTFSSYAMYWVRQAPGKGLEWVSAISGSGGSTFYADSVKGRFTISRDNSKNTLYLQMNSLRAEDTAVYYCTRPPYGDYGDYWGQGTLVTVSS VL: QSALTQPASVSGSPGQSITISCTGTSSDVGGYNLVSWYQQHPGKAPKLMIYEGNKRPSGVSNRFSGSKSGNTASLTISGLQAEDEADYYCCSYAGSSTFPVVFGGGTKLTVL | 1.5 | – | – | – | –
5 | 1-28 (antibody, V domains shown) VH: EVQLLESGGGLVQPGGSLRLSCAASGFTFSSYGMSWVRQAPGKGLEWVSAISGSGGGTYYADSVKGRFTISRDNSKNTLYLQMNSLRAEDTAVYYCASSSSWQFDYWGQGTLVTVSS VL: QSALTQPASVSGSPGQSITISCTGTSSGVGSYNLVSWYQQHPGKAPKLMIYEGSQRPSGVSNRFSGSKSGNTASLTISGLQAEDEADYYCCSYAGSSTHYVFGGGTKLTVL | 1.1 | 96.6 | – | 13.4 | 8.6
6 | 1-4 (antibody, V domains shown) VH: EVQLLESGGGLVQPGGSLRLSCAASGFTFSSQAMSWVRQAPGKGLEWVSAISGSGGGTYYADSVKGRFTISRDNSKNTLYLQMNSLRAEDTAVYYCAKDRRFGEFDPWGQGTLVTVSS VL: QSALTQPASVSGSPGQSITISCTGTSSDVGTYNLVSWYQQHPGKAPKLMIYEGSQRPSGVSNRFSGSKSGNTASLTISGLQAEDEADYYCCSYAGSSSFVVFGGGTKLTVL | 1.4 | 129 | – | 6.6 | 12.3

Reference: patent publication US20210395344A1
